Experimental data as given in the supplement of paper PMC10567573.
± gives the standard deviation.

Test: protein stability index of a GFP-peptide fusion (GPS, HEK-293T) (PSI 1-6); higher = more stable
Conditions: c terminus: a fixed tail appended
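Further: 24-mer peptide tiles fused after GFP, lentivirally expressed, FACS-sorted into six equal bins by GFP/DsRed ratio, decoded by Illumina sequencing, PSI is the read-weighted mean bin number.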

Row | Sequence | protein stability index (treatment: DMSO) | protein stability index (treatment: MLN4924 1 uM, 8 h)
1 | VRQLERENAELESRIQEWYEFQIP [KRT36] | 3.41 ± 0.16 | 3.43 ± 0.42
2 | FSDDEEDLNSKGKKREFRFHPIKE [INTS3] | 3.48 ± 0.68 | 4.04 ± 0.71
3 | REALVLRSVRVRLLLSFWKETDPL [PLD5] | 2.58 ± 1.1 | 2.38 ± 0.39
4 | FQQNHLFWLQNSSPSSDRVSAIIW [PHTF1] | 2.26 ± 0.6 | 2.43 ± 0.49
5 | VSDPQHAARLLRALSSFREESRFC [GAN] | 2.59 ± 0.068 | 2.72 ± 0.19
6 | LLLVAKMSVGHLRLLSHDQVAMPY [JAGN1] | 3.06 ± 0.46 | 2.81 ± 0.21
7 | VSAATQLRHFFLVEDLVDSLKLAL [RTN2] | 2.56 ± 0.72 | 2.49 ± 0.47
8 | PLAVEEDASSSTSTSSSFPSSFPS [MAGEA10] | 5.31 ± 0.23 | 5.41 ± 0.12
9 | DSSTSPKGKQPTSAENSVAKKEDK [NANOGP8] | 5.57 ± 0.36 | 5.58 ± 0.19
10 | ENLDNDTETDSLVSAQRERPRRRD [DVL3] | 5.51 ± 0.2 | 5.41 ± 0.29
11 | YDPTYKDKEGPSPKVEYVWRNIIL [SCD] | 2.11 ± 0.47 | 2.37 ± 0.23
12 | RSALWCLGLNAAFWFFALTSLRLV [RETREG3] | 2.91 ± 0.53 | 3.03 ± 0.72
13 | DLVLDEEGARAAGLGELGAALLQL [ESRRA] | 3.94 ± 0.19 | 4.05 ± 0.17
14 | NSTSVKKKSSRNIFSIVFVFFVCF [P2RY14] | 2 ± 0.64 | –
15 | PLKAQNDLDISRIKRGNTTLESTD [P2RY14] | 5 ± 0.11 | 5.24 ± 0.24
16 | MLTRRVLQLETVLEGVVSQIDAVG [PKD2L1] | 2.29 ± 0.49 | 2.46 ± 0.51
17 | EDPFYWVSPGVLVLLAVLPVLLLQ [MOG] | 2.52 ± 0.41 | 2.38 ± 0.69
18 | RTSSGTSREKTACAINKVGVSFST [FAM98B] | 3.29 ± 0.29 | 3.87 ± 0.46
19 | VDIVTGHARLSDIWAKTPPITRKA [DHCR7] | 3.26 ± 0.093 | 3.38 ± 0.16
20 | LQGLIPGARYEVTVVSVRGFEESE [TNXB] | 2.19 ± 0.34 | 2.44 ± 0.78
21 | LPSNLLKKFRSSTSSSLGDKSEYL [KCNA4] | 3.11 ± 0.084 | 3.23 ± 0.37
22 | AARALDKNKIPYKGFIPEDLEAFI [FEM1A] | 2.96 ± 0.29 | 3.42 ± 0.41

Row | Sequence | protein stability index (treatment: DMSO) | protein stability index (treatment: MLN4924 1 uM, 8 h)
23 | PGGNVKGVWAPPAPGFGEDVPNRL [BEX5] | 3.95 ± 0.18 | 4.16 ± 0.23
24 | EGDLPQMEVGSGSRELSLRPSRSG [EID1] | 5.07 ± 0.31 | 5.36 ± 0.35
25 | KGKTAVDTVFRFDPRYNKWMQVAS [KLHL13] | 2.4 ± 0.3 | 2.94 ± 0.5
26 | IFFDDLDSPSKEEVFRFVQSCARA [CPOX] | 2.45 ± 0.38 | 2.69 ± 0.65
27 | LQDLALQGAKERAHQQKKHSGFED [CHGA] | 4.92 ± 0.29 | 5.06 ± 0.22
28 | VAGSLAGAIAQSSIYPMEVLKTRM [SLC25A25] | 2.56 ± 0.11 | 2.54 ± 0.32
29 | AKEKLESFIKNSDSFDKFEFCEPA [PCMTD1] | 4.06 ± 0.27 | 3.96 ± 0.31
30 | AAHAVVLCALPVHVAVEHQLPPAS [SOAT2] | 2.16 ± 0.32 | 2.52 ± 0.39
31 | HFWQLFNALTLFNLAQDPQCKEWQ [TMEM120A] | 3.17 ± 0.61 | 3.72 ± 0.76
32 | EDTDPSTLSFNMSDKYPIQDTELP [EDARADD] | 5.11 ± 0.12 | 4.89 ± 0.089
33 | PLHHQTQRFRLDNLLNMAYGVKSP [ELAVL3] | 2.5 ± 0.34 | 2.63 ± 0.27
34 | PAPKSTYECRCIGEEKEMWNFGEK [TIA1] | 3.86 ± 0.23 | 3.85 ± 0.33
35 | RLKEYTIKSHSSLPPNNSYADFER [DAPK3] | 3.58 ± 0.26 | 3.61 ± 0.25
36 | SHHSKHKAPSKLGLIISGPILQEG [DLC1] | 3.08 ± 0.2 | 3.28 ± 0.13
37 | SENIKLREENEKLRLENSSLFSQA [CCDC89] | 4.65 ± 0.08 | 4.58 ± 0.2
38 | DTNLGRLEDGQTPLHLSALRDDVL [ASB7] | 4.59 ± 0.1 | 4.56 ± 0.21
39 | YGSFHQQYWLDGKIIAVGVIDILP [ATE1] | 3.36 ± 0.39 | 3.16 ± 0.67
40 | TPMTIPEFFRESVNRFGTYPALAS [ACSBG2] | 2.6 ± 0.41 | 2.78 ± 0.14
41 | MLQATAEANNLAAAASAKDIYYNN [ATL3] | 3.15 ± 0.18 | 3.44 ± 0.38
42 | EKIWRPNRVFSLQDLCCRAIVSCT [RAB40C] | 2.76 ± 0.19 | 2.88 ± 0.14
43 | PTMPQPIEKVSVSTQTKKLSASSP [ZMYND11] | 5.28 ± 0.18 | 5.24 ± 0.25
44 | ACIVVLDRTSHRLHTANLGDSGFL [PPTC7] | 2.68 ± 0.48 | 2.24 ± 0.43

Row | Sequence | protein stability index (treatment: DMSO) | protein stability index (treatment: MLN4924 1 uM, 8 h)
45 | QPPPQSSEGLVGALMHVMQKRSRA [WAS] | 4.21 ± 0.41 | 4.24 ± 0.12
46 | LRDDVLCARMLYNYGADTNTRNYE [ASB7] | 3.1 ± 0.21 | 2.86 ± 0.14
47 | RVPAGIFKHTLSISRALLSDVVPE [MFSD9] | 2.82 ± 0.74 | 3.02 ± 0.22
48 | MEHLIYGEPRKLLTQDWVQENYLE [MAGEA10] | 3.41 ± 0.35 | 3.47 ± 0.3
49 | WIGLFLVATGSQQSLAQPLPGNTT | 2.93 ± 0.55 | 2.96 ± 0.35
50 | PENGEIKPASKPAGSSHTPSSQSS [ELOA2] | 5.43 ± 0.25 | 5.62 ± 0.067
51 | LLPDQARGEVPWSPELGRPHDRSQ [ZNF263] | 4.58 ± 0.17 | 4.86 ± 0.091
52 | ERLQKEEEKRRREEEERLRREEEE [ACBD3] | 5.67 ± 0.26 | 5.59 ± 0.23
53 | LDLFAMKPPETSVPVVTPTASTAP [SNAP91] | 4.25 ± 0.28 | 4.48 ± 0.22
54 | VGGATPDQTTSEETVGGAILDQTT [HDAC6] | 5.48 ± 0.49 | 5.43 ± 0.35
55 | STSFRVYIMAFDIKSEDMLKILKP [FBXO33] | 2.14 ± 0.59 | 3.02 ± 0.51
56 | SLDISGHMILENCSISKMEEEAGQ [ZER1] | 4.66 ± 0.22 | 4.68 ± 0.22
57 | TECEGDIQKNYECANFGDQGITMG [LOXL2] | 4.94 ± 0.11 | 5.04 ± 0.19
58 | GGVGGSSRARSASSPRGMVRVCDL [ANKRD17] | 3.97 ± 0.28 | 3.97 ± 0.36
59 | PENLLLASKCKGAAVKLADFGLAI [CAMK2B] | 2.33 ± 0.31 | 2.56 ± 0.44
60 | TGEKPHTCSECGKGFIQKGNLNIH [ZNF649] | 3.14 ± 0.25 | 3.54 ± 0.16
61 | VNPLHVDSTWLLLRRIRAESGTKG [SLC25A39] | 2.83 ± 0.3 | 2.74 ± 0.33
62 | HFPASPFWSVMFFLMLINLGLGSM [SLC6A17] | 3.67 ± 0.42 | 3.4 ± 0.25
63 | RNLHSHYHEAPMTRKHYQVTGYGI [POMT2] | 2.35 ± 0.15 | 2.46 ± 0.23
64 | RLNLTNTKQNFFSQTPILQALQHV [INTS3] | 2.23 ± 0.092 | 2.5 ± 0.17
65 | HENAVQGSAVEVQTYQPPWKALSE [ISL2] | 4.15 ± 0.23 | 4.02 ± 0.17
